Experimental findings from patent US20180134781A1 (Regeneron, published 2018) are described below.

Assay [1] has as its target T1, hLDLR-mFc (negative control protein with the same mFc tag) (human, UniProt P01130 22-788).
T1 construct: also called Irrelevant control; not shown: mFc tag ('the same mFc tag', mouse IgG2a Fc)
In words: BLI (Octet HTX), hLDLR-mFc captured on AMC sensor. As to the method: (§1) Binding of ANGPTL8 antibodies to human and monkey ANGPTL8 proteins was investigated using Bio-layer Interferometry with an Octet HTX biosensor platform (ForteBio, A Division of Pall Life Sciences). All experiments were performed at 25° C. in 10 mM HEPES pH 7.4, 150 mM NaCl, 0.05% v/v Surfactant Tween-20, and 1 mg/ml BSA with the reaction multiwell plate agitated at 1000 rpm. Approximately 1.6 nm of human ANGPTL8 produced with a C-terminal mouse IgG2a Fc tag (hANGPTL8-mFc; SEQ ID NO: 340) or cynomolgus monkey ANGPTL8 produced with a C-terminal mouse IgG2a Fc tag (MfANGPTL8-mFc; SEQ ID NO: 341) was captured onto anti-mFc (AMC) Octet biosensors by submerging the sensors into wells containing 10 μg/mL of each protein for 4 minutes. Under the same conditions a negative control protein with the same mFc tag (hLDLR-mFc) was also coupled to the AMC sensor. All four sensors, […] and one blank, were then submerged into wells containing 100 nM of different ANGPTL8 monoclonal antibodies or an isotype control for 4 minutes.

For another assay, the target named is T2, mouse ANGPTL4 (mouse, UniProt Q9Z1P8 24-410, limits assumed).
T2 sequence (looked up): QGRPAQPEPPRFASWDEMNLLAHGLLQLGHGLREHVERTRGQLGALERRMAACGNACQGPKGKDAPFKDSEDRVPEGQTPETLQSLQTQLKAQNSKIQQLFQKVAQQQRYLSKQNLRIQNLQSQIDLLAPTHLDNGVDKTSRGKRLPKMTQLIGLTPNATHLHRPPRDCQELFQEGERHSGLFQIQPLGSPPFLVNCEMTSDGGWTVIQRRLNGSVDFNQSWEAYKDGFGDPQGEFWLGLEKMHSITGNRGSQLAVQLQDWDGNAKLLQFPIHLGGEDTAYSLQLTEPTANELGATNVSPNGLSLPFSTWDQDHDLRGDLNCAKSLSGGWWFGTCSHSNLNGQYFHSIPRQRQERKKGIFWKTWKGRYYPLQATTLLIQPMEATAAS
In words: SPR. (In SPR one partner is held on a chip, and binding of the other changes the refractive index at the surface.)

In a further assay the target is T3, mouse ANGPTL3 (mouse, UniProt Q9R182 17-455, limits assumed).
T3 sequence (looked up): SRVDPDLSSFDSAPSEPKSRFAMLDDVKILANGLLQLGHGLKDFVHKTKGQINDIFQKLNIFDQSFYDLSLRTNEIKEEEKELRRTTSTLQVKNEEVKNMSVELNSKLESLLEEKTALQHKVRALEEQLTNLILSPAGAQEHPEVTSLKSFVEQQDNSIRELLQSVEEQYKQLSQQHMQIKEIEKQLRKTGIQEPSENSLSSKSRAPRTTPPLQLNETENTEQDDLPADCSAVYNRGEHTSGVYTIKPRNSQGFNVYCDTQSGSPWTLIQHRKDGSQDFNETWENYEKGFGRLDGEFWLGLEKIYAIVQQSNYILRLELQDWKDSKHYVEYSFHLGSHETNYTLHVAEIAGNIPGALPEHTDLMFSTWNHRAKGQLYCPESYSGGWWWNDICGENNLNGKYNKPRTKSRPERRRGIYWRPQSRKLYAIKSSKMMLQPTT
Description: SPR.

In another assay the target is T4, mouse ANGPTL8 (mouse, UniProt Q8R1L8 16-198, limits assumed).
T4 sequence (looked up): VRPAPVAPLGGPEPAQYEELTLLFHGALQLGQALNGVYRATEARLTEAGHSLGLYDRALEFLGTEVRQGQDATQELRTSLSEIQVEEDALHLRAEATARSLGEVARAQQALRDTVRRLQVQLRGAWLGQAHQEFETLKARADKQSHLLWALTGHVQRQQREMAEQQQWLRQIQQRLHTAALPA
In words: SPR.

The target in the next assay is T5, human ANGPTL4 (human, UniProt Q9BY76 26-406, limits assumed).
T5 construct: also called hANGPTL4
T5 sequence: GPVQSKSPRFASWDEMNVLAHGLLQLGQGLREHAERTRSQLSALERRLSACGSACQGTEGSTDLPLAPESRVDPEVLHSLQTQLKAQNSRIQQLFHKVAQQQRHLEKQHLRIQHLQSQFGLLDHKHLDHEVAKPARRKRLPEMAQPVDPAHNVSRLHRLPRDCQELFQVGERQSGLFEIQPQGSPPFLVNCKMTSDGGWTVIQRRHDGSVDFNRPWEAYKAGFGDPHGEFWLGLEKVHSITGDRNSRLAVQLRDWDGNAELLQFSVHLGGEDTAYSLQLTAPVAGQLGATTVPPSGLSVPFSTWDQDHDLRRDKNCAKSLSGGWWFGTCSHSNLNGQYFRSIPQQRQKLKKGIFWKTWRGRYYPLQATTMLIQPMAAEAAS
Description: SPR.

For a further assay, the target named is T6, human ANGPTL3 (human, UniProt Q9Y5C1 17-460, limits assumed).
T6 construct: also called hANGPTL3
T6 sequence: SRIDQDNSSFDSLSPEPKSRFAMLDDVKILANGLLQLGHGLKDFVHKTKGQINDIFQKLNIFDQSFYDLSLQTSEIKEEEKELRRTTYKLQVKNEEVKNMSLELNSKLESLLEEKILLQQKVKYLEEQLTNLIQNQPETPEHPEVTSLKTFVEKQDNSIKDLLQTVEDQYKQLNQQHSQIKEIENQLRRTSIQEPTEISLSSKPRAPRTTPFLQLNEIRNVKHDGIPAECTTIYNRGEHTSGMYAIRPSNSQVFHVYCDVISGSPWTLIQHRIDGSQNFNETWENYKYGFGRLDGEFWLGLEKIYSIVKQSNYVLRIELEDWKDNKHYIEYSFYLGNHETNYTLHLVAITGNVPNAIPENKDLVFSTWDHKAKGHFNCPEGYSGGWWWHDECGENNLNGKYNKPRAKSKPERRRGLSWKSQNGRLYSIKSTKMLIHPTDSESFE
In words: SPR.

Assay [2] deals with T7, monkey ANGPTL8 expressed with C-terminal mouse IgG2a Fc tag (cynomolgus monkey).
T7 construct: also called MfANGPTL8-mFc; mfANGPTL8-mFc
T7 chain: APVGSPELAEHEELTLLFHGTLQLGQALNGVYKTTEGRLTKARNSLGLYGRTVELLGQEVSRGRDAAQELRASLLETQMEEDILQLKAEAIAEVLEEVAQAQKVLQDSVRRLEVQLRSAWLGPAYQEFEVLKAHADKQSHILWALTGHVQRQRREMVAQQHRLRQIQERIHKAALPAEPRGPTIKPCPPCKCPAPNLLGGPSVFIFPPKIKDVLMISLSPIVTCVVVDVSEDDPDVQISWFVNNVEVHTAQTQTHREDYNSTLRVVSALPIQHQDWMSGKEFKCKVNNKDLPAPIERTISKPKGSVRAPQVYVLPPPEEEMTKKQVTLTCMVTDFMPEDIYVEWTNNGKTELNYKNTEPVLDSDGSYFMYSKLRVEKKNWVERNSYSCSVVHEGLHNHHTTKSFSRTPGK
Description: BLI (Octet HTX), MfANGPTL8-mFc captured on AMC sensor. As to the method: as §1

The target of assay [3] is T8, human ANGPTL8 expressed with C-terminal mouse IgG2a Fc tag (human).
T8 construct: also called hANGPTL8-mFc; hANGPTL8.mFc
T8 chain: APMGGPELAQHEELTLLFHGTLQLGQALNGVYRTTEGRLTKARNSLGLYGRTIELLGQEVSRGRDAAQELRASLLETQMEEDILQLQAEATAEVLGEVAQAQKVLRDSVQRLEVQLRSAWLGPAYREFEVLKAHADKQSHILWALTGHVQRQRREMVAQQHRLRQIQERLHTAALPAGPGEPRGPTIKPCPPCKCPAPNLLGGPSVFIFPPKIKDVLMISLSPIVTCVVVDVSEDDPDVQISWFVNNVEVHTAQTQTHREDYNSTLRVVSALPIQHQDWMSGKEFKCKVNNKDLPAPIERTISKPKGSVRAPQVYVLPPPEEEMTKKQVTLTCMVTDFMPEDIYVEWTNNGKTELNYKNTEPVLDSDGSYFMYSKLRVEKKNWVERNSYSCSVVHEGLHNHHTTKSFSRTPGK
Description: BLI (Octet HTX), hANGPTL8-mFc captured on AMC sensor. As to the method:
as §1
(Biolayer interferometry detects binding as a change in optical thickness at a sensor tip.)

T1 sequence (P01130 22-788): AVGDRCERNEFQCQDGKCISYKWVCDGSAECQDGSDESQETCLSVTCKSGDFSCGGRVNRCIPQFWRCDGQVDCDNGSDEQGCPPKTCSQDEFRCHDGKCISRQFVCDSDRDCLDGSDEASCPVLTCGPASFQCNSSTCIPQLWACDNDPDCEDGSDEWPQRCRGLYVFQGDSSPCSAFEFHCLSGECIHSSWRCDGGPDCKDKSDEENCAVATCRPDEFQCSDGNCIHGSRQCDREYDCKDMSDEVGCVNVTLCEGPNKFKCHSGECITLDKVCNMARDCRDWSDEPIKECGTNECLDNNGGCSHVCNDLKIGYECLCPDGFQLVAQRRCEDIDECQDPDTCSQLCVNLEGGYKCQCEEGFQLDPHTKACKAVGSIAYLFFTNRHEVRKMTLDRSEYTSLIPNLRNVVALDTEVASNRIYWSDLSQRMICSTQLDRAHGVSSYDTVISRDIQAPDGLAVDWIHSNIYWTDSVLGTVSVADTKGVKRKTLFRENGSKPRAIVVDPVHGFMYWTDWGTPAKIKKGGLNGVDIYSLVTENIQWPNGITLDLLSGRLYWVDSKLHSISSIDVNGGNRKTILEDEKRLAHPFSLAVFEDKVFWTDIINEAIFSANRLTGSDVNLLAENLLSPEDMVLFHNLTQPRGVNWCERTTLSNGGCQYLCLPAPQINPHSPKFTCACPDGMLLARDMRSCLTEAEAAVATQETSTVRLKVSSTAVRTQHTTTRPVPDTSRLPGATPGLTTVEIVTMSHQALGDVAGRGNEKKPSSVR

B1: H4H15341P (antibody, human IgG4, V domains shown)
VH: EVQLVESGGGLVQPGGSLRLSCAASGFTFNNHEMNWVRQAPGKGLEWVSYISSSGNTVTYADFLKGRFTISRDNAKNSLFLQMNSLRDEDTAVYYCARDHLSGTSPLSYWGQGTLVTVSS
VL: DIQMTQSPSSLSASVGDRVTITCQASQDINNYLNWFQQKPGKAPKLLIFDASNLETGVPSRFSGSGSGTDFTFTISSLQPEDIATYFCQQYENLPYTFGQGTKLEIK
notes: also called anti-hANGPTL8
For B1, the binding result in assay [1] is “no binding (tested: 0.03 nm at 100 nM mAb)”; with mouse ANGPTL4, “no binding”; with mouse ANGPTL3, “no binding”; with mouse ANGPTL8, “no binding”; with human ANGPTL4, “no binding”; in the assay with human ANGPTL3 it was “no binding”.

B2: H4H15316P (antibody, human IgG4, V domains shown)
VH: EVQLVESGGGLVQPGRSLRLSCAASGFIFDDYDMHWVRQAPGKGLEWVSGISWNSGSKGYADSVKGRFTISRDNAKNSLYLQMNSLRAEDTALYYCTKGPWDYFDYWGQGTLVTVSS
VL: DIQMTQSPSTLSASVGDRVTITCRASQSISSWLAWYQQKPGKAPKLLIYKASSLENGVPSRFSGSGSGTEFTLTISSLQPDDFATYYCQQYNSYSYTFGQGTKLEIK
notes: human IgG4 Fc (H4H prefix)
In the case of B2, the values for the binding result in assay [1], in assay [2] and in assay [3] were “no binding (tested: 0.03 nm at 100 nM mAb)”, “no binding (tested: background 0.03 nm at 100 nM mAb)” and “no binding (tested: background 0.03 nm at 100 nM mAb)”, respectively.
